Laboratory results as given in patent US12138316B2, “Anti-B7H3 antibody-drug conjugate and use thereof” (Duality Biologics (Suzhou) Co., Ltd., priority 2023, dated 2024).

Columns and labels:
[1] = Pharmacokinetic study, single intravenous infusion in cynomolgus monkeys; settings: both sexes, cynomolgus monkey, in vivo
Method: 18 cynomolgus monkeys (half female and half male) were weighed one day before administration, stratified based on the weight, and then randomly divided into 3 groups (3 females and 3 males/group): a low dose group (1 mg/kg), a medium dose group (3 mg/kg), and a high dose group (10 mg/kg). […] Blood was collected from the forelimb veins of cynomolgus monkeys in each group, and treated samples of the blood collected at 0 h before and 0.5 […], and 672 h after the administration were used as PK samples. After the blood collection at each time point was completed, serum was obtained by centrifugation for sample analysis.

human 2IgB7H3 = target: T1, human 2IgB7H3 (Homo sapiens, UniProt Q5ZPR3); assay: Binding affinity for human 2IgB7H3 (SPR)
T1 construct: His tag; purchased ACROBiosystems B73-H52E2
T1 sequence (Q5ZPR3 29-316 isoform Q5ZPR3-2 limits assumed): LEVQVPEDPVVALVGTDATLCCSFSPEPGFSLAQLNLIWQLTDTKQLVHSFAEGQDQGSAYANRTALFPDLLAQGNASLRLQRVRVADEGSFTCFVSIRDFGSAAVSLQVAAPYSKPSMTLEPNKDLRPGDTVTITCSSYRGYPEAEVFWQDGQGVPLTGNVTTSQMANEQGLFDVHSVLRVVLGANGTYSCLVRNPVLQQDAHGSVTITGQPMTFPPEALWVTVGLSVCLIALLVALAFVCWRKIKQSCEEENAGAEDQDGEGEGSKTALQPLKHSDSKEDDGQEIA
Method: (§1) The affinity of antibodies for human 2IgB7H3 was determined using surface plasmon resonance (SPR). The affinity of antibodies for human 2IgB7H3 was determined by Biacore 8K. An activator was prepared by mixing 400 mM EDC and 100 mM NHS (GE) immediately prior to injection into the channel. The CM5 sensor chip was activated for 420 seconds with the activator. Goat anti-human Fc IgG (30 μg/mL in 10 mM NaAc, pH 4.5) was then injected into the channel at a flow rate of 10 μL/min for 420 seconds. The chip was deactivated by 1 M ethanolamine hydrochloric acid. The antibodies diluted in running buffer (1×HBS-EP+) were injected into the channel at a flow rate of 10 μL/min for 30 seconds. Seven concentrations (500 nM, 250 nM, 125 nM, 62.5 nM, 31.25 nM, 15.625 nM, and 7.813 nM) of analyte human 2IgB7H3 were injected sequentially into the channel at a flow rate of 30 μL/min for an association phase of 120 seconds, followed by dissociation of 300 seconds. Glycine (10 mM, pH 1.5) was injected as regeneration buffer after the dissociation phase.
(§2) The sensorgrams for the reference channel and the buffer channel were subtracted from the test sensorgrams. The experimental data were fitted with a 1:1 binding model. The molecular weight of the human 2IgB7H3 used in the calculation was 25.2 kDa.

cynomolgus monkey B7H3 [2] = assay: FACS binding to cynomolgus monkey B7H3-transfected stable cell pool
Method: FACS was used to detect the binding of antibodies to cynomolgus monkey B7H3. FlpinCHO cells were transfected with cynomolgus monkey B7H3 (W3XX088-FlpinCHO.cProl.pool) (1×10^5 cells/well), and the transfected cells were incubated with various concentrations of antibodies (3.16-fold serially diluted with 1×DPBS/1% BSA from 50 nM to 0.0005 nM) in a volume of 100 μL/well in a refrigerator set to 4° C. for 1 h. Anti-human B7H3 reference antibody enoblituzumab (MacroGeneics) was used as a positive control. Human IgG1 isotype antibody was used as a negative control. After washing the cells with 1×DPBS/1% BSA, Alexa 647 goat anti-human antibody (diluted in a 1:500 ratio in 1×DPBS/1% BSA) was added. The cells were incubated in a refrigerator set to 4° C. for 0.5 h in the dark. The mean fluorescence intensity (MFI) of the cells was measured by a flow cytometry and analyzed by FlowJo. EC50 values were calculated by four-parameter non-linear regression analysis using GraphPad Prism 7 software.

human 4IgB7H3 = target: T2, human 4IgB7H3 (Homo sapiens, UniProt Q5ZPR3); assay: Binding affinity for human 4IgB7H3 (SPR)
T2 construct: Uniprot ID: Q5ZPR3, amino acids 29-461; made in house; host or cells: Expi293F
T2 sequence (Q5ZPR3 29-461): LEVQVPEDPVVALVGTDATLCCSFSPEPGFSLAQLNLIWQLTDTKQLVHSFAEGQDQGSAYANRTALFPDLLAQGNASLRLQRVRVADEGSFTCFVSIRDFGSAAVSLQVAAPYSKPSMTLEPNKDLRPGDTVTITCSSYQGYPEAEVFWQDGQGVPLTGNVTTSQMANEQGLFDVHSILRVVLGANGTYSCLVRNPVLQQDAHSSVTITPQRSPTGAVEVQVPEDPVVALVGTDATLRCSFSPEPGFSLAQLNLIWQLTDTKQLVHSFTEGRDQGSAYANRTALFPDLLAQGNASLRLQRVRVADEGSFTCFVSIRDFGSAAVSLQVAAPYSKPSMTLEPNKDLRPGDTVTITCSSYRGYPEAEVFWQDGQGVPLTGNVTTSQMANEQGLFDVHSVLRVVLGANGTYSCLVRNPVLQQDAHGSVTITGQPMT
Method: The affinity of antibodies for human 4IgB7H3 was determined using surface plasmon resonance (SPR). The affinity of antibodies for human 4IgB7H3 was determined by Biacore 8K. An activator was prepared by mixing 400 mM EDC and 100 mM NHS (GE) immediately prior to injection into the channel. The CM5 sensor chip was activated for 420 seconds with the activator. Goat anti-human Fc IgG (30 μg/mL in 10 mM NaAc, pH 4.5) was then injected into the channel at a flow rate of 10 μL/min for 420 seconds. The chip was deactivated by 1 M ethanolamine hydrochloric acid. The antibodies diluted in running buffer (1×HBS-EP+) were injected into the channel at a flow rate of 10 μL/min for 30 seconds. Seven concentrations (100 nM, 50 nM, 25 nM, 12.5 nM, 6.25 nM, […], and 1.563 nM) of analyte human 4IgB7H3 were injected sequentially into the channel at a flow rate of 30 μL/min for an association phase of 180 seconds, followed by dissociation of 3600 seconds. Glycine (10 mM, pH 1.5) was injected as regeneration buffer after the dissociation phase.
The sensorgrams for the reference channel and the buffer channel were subtracted from the test sensorgrams. The experimental data were fitted with a 1:1 binding model. The molecular weight of the human 4IgB7H3 used in the calculation was 47.8 kDa.

cynomolgus monkey B7H3 [3] = assay: Binding affinity for cynomolgus monkey B7H3 (SPR)
Method: as §1, with “cynomolgus monkey B7H3” for “human 2IgB7H3”, “Seven concentrations (500 nM, 250 nM, 125 nM, 62.5 nM, 31.25 nM, 15.625 nM, and 7.813 nM) of analyte human 2IgB7H3 were injected sequentially into the channel at a flow rate of 30 μL/min for an association phase of 120 seconds, followed by dissociation of 300 seconds.” left out
as §2, with “data for 6 analyte concentrations (50 nM, 25 nM, 12.5 nM, 6.25 nM, 3.125 nM, and 1.563 nM)” for “data”, “cynomolgus monkey B7H3” for “human 2IgB7H3”, “49” for “25.2”

[4] = tested on: human B7H3-expressing cells MCF-7; assay: Internalization test (HCS) in MCF-7 cells; type: cell-based
Method: Antibody internalization was determined by operetta CLS (PerkinElmer), a high-content imaging and analysis system that can collect and analyze images of samples at high speed and high sensitivity. MCF-7 cells expressing human full-length B7H3 (1.5×10^4 cells/well) were seeded into a 96-well clear bottom black plate pre-coated with 8 μg/mL poly-D-lysine. After incubation in an incubator set to 37° C., 5% CO2 overnight, various concentrations of the antibodies (3.16-fold serially diluted with 1×DPBS/1% BSA from 50 nM to 0.0005 nM) were incubated in a volume of 100 μL/well in a refrigerator set to 4° C. for 2 h. Anti-human B7H3 reference antibody enoblituzumab (MacroGeneics) was used as a positive control. Human IgG1 isotype antibody was used as a negative control. After washing the cells with 1×DPBS/1% BSA, Alexa 647 goat anti-human antibody (diluted in a 1:500 ratio in 1×DPBS/1% BSA) was added. The cells were incubated in a refrigerator set to 4° C. for 1 h in the dark. The cells were then washed once and resuspended in 1×DPBS/1% BSA at 37° C. for 2 h. […] The mean fluorescence intensity (MFI) of the cells was measured and analyzed by operetta CLS. EC50 values were calculated by four-parameter non-linear regression analysis using GraphPad Prism 7 software.

human B7H3 = target: T3, human B7H3 (Homo sapiens, UniProt Q5ZPR3); assay: FACS binding to human B7H3-expressing cells MCF-7
T3 construct: MCF-7 cells expressing human full-length B7H3; host or cells: MCF-7
T3 sequence (Q5ZPR3 29-534): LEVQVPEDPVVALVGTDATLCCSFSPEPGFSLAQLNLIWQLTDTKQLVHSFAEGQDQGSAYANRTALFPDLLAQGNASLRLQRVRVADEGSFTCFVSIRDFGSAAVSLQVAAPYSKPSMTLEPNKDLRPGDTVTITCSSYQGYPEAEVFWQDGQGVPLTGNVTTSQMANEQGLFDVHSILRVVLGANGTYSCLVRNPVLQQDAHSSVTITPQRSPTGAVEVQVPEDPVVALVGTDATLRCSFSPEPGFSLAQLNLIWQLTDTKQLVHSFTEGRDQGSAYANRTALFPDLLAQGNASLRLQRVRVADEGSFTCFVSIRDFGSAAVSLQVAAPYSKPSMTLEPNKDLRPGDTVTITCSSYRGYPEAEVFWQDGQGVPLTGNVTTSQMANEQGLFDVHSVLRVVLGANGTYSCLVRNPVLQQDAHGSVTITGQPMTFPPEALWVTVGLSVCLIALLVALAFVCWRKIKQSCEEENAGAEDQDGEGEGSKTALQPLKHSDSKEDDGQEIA
Method: FACS was used to detect the binding of antibodies to human B7H3. This method allows quantitative analysis and identification of specific molecules expressed on the surface of living cells. Unlabeled cells were used as a control to set a threshold before the assay, and the percentage change for each group that exceeded the fluorescence intensity threshold was analyzed. MCF-7 cells expressing human full-length B7H3 (1×10^5 cells/well) were incubated with various concentrations of antibodies (3.16-fold serially diluted with 1×DPBS/1% BSA from 50 nM to 0.0005 nM) in a volume of 100 μL/well in a refrigerator set to 4° C. for 1 h. Anti-human B7H3 reference antibody enoblituzumab (MacroGeneics) was used as a positive control. Human IgG1 isotype antibody was used as a negative control. After washing the cells with 1×DPBS/1% BSA, Alexa 647 goat anti-human antibody (diluted in a 1:500 ratio in 1×DPBS/1% BSA) was added. The cells were incubated in a refrigerator set to 4° C. for 0.5 h in the dark. The mean fluorescence intensity (MFI) of the cells was measured by a flow cytometry and analyzed by FlowJo. EC50 values were calculated by four-parameter non-linear regression analysis using GraphPad Prism 7 software.

CC[C@@]1(O)C(=O)OCc2c1cc1n(c2=O)Cc2c-1nc1cc(F)c(C)c3c1c2[C@@H](NC(=O)C[C@H](C)O)CC3 [P-III-30]
AUC(0-t) ([1]; 3 mg/kg): 1.07 ng·h/mL | Cmax ([1]; 3 mg/kg): 0.133 ng/mL | AUC(0-t) ([1]; 10 mg/kg): 44.5 ng·h/mL | Cmax ([1]; 10 mg/kg): 0.573 ng/mL

B1: Enoblituzumab (MacroGenics): anti-B7H3 benchmark antibody (MacroGenics), SEQ ID NOs: 117 and 119 in U.S. 20120294796A1 (antibody, chains of the INN, looked up)
heavy: EVQLVESGGGLVQPGGSLRLSCAASGFTFSSFGMHWVRQAPGKGLEWVAYISSDSSAIYYADTVKGRFTISRDNAKNSLYLQMNSLRDEDTAVYYCGRGRENIYYGSRLDYWGQGTTVTVSSASTKGPSVFPLAPSSKSTSGGTAALGCLVKDYFPEPVTVSWNSGALTSGVHTFPAVLQSSGLYSLSSVVTVPSSSLGTQTYICNVNHKPSNTKVDKRVEPKSCDKTHTCPPCPAPELVGGPSVFLLPPKPKDTLMISRTPEVTCVVVDVSHEDPEVKFNWYVDGVEVHNAKTKPPEEQYNSTLRVVSVLTVLHQDWLNGKEYKCKVSNKALPAPIEKTISKAKGQPREPQVYTLPPSREEMTKNQVSLTCLVKGFYPSDIAVEWESNGQPENNYKTTPLVLDSDGSFFLYSKLTVDKSRWQQGNVFSCSVMHEALHNHYTQKSLSLSPG
light: DIQLTQSPSFLSASVGDRVTITCKASQNVDTNVAWYQQKPGKAPKALIYSASYRYSGVPSRFSGSGSGTDFTLTISSLQPEDFATYYCQQYNNYPFTFGQGTKLEIKRTVAAPSVFIFPPSDEQLKSGTASVVCLLNNFYPREAKVQWKVDNALQSGNSQESVTEQDSKDSTYSLSSTLTLSKADYEKHKVYACEVTHQGLSSPVTKSFNRGEC
ka (human 2IgB7H3): 64400 M⁻¹ s⁻¹ | kd (dissociation rate constant) (human 2IgB7H3): 0.0168 s⁻¹ | Maximum MFI (cynomolgus monkey B7H3 [2]): 19700 | ka (human 4IgB7H3): 124000 M⁻¹ s⁻¹ | kd (dissociation rate constant) (human 4IgB7H3): 0.000126 s⁻¹ | ka (cynomolgus monkey B7H3 [3]): 185000 M⁻¹ s⁻¹ | kd (dissociation rate constant) (cynomolgus monkey B7H3 [3]): 8.14e-05 s⁻¹ | Antibody internalization Maximum MFI [4]: 39777 | Maximum MFI (human B7H3): 4644
